The assay addresses T1, M. tuberculosis AccA3, His tag fusion (α-subunit of the acyl-CoA carboxylases) (M. tuberculosis, UniProt P96890 1-600).
T1 construct: also called His-AccA3; AccA3-His6
The assay can be described thus: pull-down. Particulars: both partners purified.

T1 sequence (P96890 whole entry, the tested form may be a part): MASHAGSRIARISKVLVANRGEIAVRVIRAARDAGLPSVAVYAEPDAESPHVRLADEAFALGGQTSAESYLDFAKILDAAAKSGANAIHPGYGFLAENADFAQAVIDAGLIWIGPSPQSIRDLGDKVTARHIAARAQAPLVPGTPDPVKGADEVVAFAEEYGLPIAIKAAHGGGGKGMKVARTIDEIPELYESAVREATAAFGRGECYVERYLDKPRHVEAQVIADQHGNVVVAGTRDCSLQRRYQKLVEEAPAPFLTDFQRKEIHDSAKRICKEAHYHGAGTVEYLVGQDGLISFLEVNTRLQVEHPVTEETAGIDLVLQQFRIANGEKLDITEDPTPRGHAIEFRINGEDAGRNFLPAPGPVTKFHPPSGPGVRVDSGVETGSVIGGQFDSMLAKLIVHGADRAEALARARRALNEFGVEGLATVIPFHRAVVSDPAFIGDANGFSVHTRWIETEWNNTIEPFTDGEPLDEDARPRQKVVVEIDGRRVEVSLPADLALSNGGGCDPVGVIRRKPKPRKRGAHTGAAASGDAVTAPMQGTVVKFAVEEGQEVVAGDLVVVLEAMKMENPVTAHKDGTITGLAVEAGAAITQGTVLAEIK

B1: Azospirillum brasilense GlnB (PII protein), without tags (natural protein, A. brasilense, UniProt P21193 1-112, looked up)
chain: MKKIEAIIKPFKLDEVKEALHEVGIKGITVTEAKGFGRQKGHTELYRGAEYVVDFLPKVKIEVVMEDSLVERAIEAIQQAAHTGRIGDGKIFVTPVEEVVRIRTGEKGGDAI
notes: also called Ab-GlnB; PII (Ab); source: E. coli (plasmid pLH25PET, pET28a), obtained without tags according to Gerhardt et al. (2015, 2017)
With B1, the binding result is reported as “binds”.

For the origin of these results see publication PMC11001197, “The PII protein interacts with the Amt ammonium transport and modulates nitrate/nitrite assimilation in mycobacteria” (Frontiers in Microbiology, 2024).
